# B1: Variant A2M, bait region SEQ ID NO 128, P01023 24-1474 (protein)
# chain: SVSGKPQYMVLVPSLLHTETTEKGCVLLSYLNETVTVSASLESVRGNRSLFTDLEAENDVLHCVAFAVPKSSSNEEVMFLTVQVKGPTQEFKKRTTVMVKNEDSLVFVQTDKSIYKPGQTVKFRVVSMDENFHPLNELIPLVYIQDPKGNRIAQWQSFQLEGGLKQFSFPLSSEPFQGSYKVVVQKKSGGRTEHPFTVEEFVLPKFEVQVTVPKIITILEEEMNVSVCGLYTYGKPVPGHVTVSICRKYSDASDCHGEDSQAFCEKFSGQLNSHGCFYQQVKTKVFQLKRKEYEMKLHTEAQIQEEGTVVELTGRQSSEITRTITKLSFVKVDSHFRQGIPFFGQVRLVDGKGVPIPNKVIFIRGNEANYYSNATTDEHGLVQFSINTTNVMGTSLTVRVNYKDRSPCYGYQWVSEEHEEAHHTAYLVFSPSKSFVHLEPMSHELPCGHTQTVQAHYILNGGTLLGLKKLSFYYLIMAKGGIVRTGTHGLLVKQEDMKGHFSISIPVKSDIAPVARLLIYAVLPTGDVIGDSAKYDVENCLANKVDLSFSPSQSLPASHAHLRVTAAPQSVCALRAVDQSVLLMKPDAELSASSVYNLLPEKDLTGFPGPLNDQDDEDCINRHNVYINGITYTPVSSTNEKDMYSFLEDMGLKAFTNSKIRKPKMCPQLEQYEMHGPSELEGRGSEAIPMSIPTKEEEGLGSIPENFFGVVEEPHTKLRKYFPETWIWDLVVVNSAGVAEVGVTVPDTITEWKAGAFCLSEDAGLGISSTASLRAFQPFFVELTMPYSVIRGEAFTLKATVLNYLPKCIRVSVQLEASPAFLAVPVEKEQAPHCICANGRQTVSWAVTPKSLGNVNFTVSAEALESQELCGTEVPSVPEHGRKDTVIKPLLVEPEGLEKETTFNSLLCPSGGEVSEELSLKLPPNVVEESARASVSVLGDILGSAMQNTQNLLQMPYGCGEQNMVLFAPNIYVLDYLNETQQLTPEIKSKAIGYLNTGYQRQLNYKHYDGSYSTFGERYGRNQGNTWLTAFVLKTFAQARAYIFIDEAHITQALIWLSQRQKDNGCFRSSGSLLNNAIKGGVEDEVTLSAYITIALLEIPLTVTHPVVRNALFCLESAWKTAQEGDHGSHVYTKALLAYAFALAGNQDKRKEVLKSLNEEAVKKDNSVHWERPQKPKAPVGHFYEPQAPSAEVEMTSYVLLAYLTAQPAPTSEDLTSATNIVKWITKQQNAQGGFSSTQDTVVALHALSKYGAATFTRTGKAAQVTIQSSGTFSSKFQVDNNNRLLLQQVSLPELPGEYSMKVTGEGCVYLQTSLKYNILPEKEEFPFALGVQTLPQTCDEPKAHTSFQISLSVSYTGSRSASNMAIVDVKMVSGFIPLKPTVKMLERSNHVSRTEVSSNHVLIYLDKVSNQTLSLFFTVLQDVPVRDLKPAIVKVYDYYETDEFAIAEYNAPCSKDLGNADYKDDDDKGASHHHHHH
# Target: Protease Mixtures
# Assay: cell-based or functional assay
binder,measurement,value
B1,"Protease Inhibition (% of WT); Protease Mixtures, IGD Substrate",125 % of WT

# Source: patent US20230250154A1
